By Kd is commonly meant the constant that tells how readily two partners part at equilibrium.

The target of assay [1] is F-actin (polymerised purified rabbit skeletal G-actin) (rabbit) (UniProt P68135). Briefly: co-sedimentation.
Assay [2] addresses microtubules polymerised from porcine Tubulin (porcine) (UniProt P02550). Nature of the assay: co-sedimentation.
UniProt P02550, sequence (P02550 whole entry, looked up): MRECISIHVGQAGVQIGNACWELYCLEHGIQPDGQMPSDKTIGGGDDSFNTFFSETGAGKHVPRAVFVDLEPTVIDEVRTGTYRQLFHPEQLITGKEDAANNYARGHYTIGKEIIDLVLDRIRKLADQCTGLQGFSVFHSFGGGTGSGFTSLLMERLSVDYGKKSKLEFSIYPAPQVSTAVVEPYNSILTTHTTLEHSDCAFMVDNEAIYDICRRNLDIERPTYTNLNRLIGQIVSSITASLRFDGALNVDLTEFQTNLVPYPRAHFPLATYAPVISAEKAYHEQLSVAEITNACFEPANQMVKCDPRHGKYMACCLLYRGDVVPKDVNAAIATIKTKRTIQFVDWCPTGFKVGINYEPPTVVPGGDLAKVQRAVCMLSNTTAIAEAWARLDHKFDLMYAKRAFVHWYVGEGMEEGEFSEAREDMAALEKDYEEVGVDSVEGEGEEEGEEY

Substance “HTT Bridge domain tagged with GST (GST-B: 1887-2098 a.a.) (domain or fragment)” had a Pellet/Supernatant with F-actin in assay [1] of 1.6.
Regarding “purified human full-length (FL) wild-type HTT (23 glutamines) (from UniProt P42858 1-3142) (natural protein)”, in assay [1], the dissociation constant Kd was determined as 357 nM and the Pellet/Supernatant with F-actin worked out at 1.05.
In assay [1] (remark: other sources report otherwise), “endogenous HTT of mouse developing cortex, P42859 1-3119” gave an amount of HTT in the pellet with F-actin of 1.07.
“endogenous HTT of mouse developing cortex (from UniProt P42859 1-3119) (natural protein)”: in assay [2], the amount of HTT in the pellet with microtubules came out at 1.18.
Regarding “HTT fragment containing the Bridge to C_HEAT domains (B-C_HEAT; 1887 to 3144 a.a.) (domain or fragment)”, the Pellet/Supernatant with F-actin in assay [1] was found to be 1.57.

(Values after publication doi:10.1101/2023.08.29.555277.)
